The text below walks through data of US20210061904A1 (GMAX BIOPHARM, published 2021).

Assay [1] addresses T1, human gastric inhibitory polypeptide receptor (hGIPR) (human) (UniProt P48546).
T1 sequence: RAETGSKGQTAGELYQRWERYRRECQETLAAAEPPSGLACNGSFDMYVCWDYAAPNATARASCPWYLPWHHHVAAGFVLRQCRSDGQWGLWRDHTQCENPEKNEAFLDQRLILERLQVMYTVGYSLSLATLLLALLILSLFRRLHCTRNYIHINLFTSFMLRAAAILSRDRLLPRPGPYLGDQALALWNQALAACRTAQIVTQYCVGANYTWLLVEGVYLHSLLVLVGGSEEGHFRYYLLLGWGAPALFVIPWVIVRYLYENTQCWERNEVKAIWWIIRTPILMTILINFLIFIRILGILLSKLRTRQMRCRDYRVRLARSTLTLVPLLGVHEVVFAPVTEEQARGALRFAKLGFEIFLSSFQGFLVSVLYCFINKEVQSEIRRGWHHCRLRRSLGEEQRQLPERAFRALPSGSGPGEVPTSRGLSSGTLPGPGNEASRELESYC
As to the kind of experiment: cell-based or functional assay.

The target of assay [2] is human GLP-1 receptor (hGLP-1R) (human) (UniProt P43220). As to the kind of experiment: cell-based or functional assay.
For assay [3], the target named is T2, human gastric inhibitory polypeptide receptor (hGIPR) (human, UniProt P48546 22-466).
T2 sequence: T1 sequence
As to the kind of experiment: cell-based or functional assay.

The target of assay [4] is T2, human gastric inhibitory polypeptide …. As to the kind of experiment: FACS on CHO-DHFR-hGIPR cells, 1 µM antibody. On the procedure: PBS containing 10 mM EDTA was used to detach the CHO-DHFR-hGIPR cells and 10⁵ cells/tube was distributed into 1.5 mL EP tubes, and the supernatant was removed after centrifugation. The negative control sample was resuspended with a loading buffer (PBS, 2% FBS). For the positive control, 200 μL GIPR antibody solution of specific concentration was added to the cells and incubated at room temperature; after incubation, the cells were then centrifuged at 1500 rpm to remove the supernatant, washed with a FACS loading buffer and centrifuged again. The cells were resuspended with addition (200 μL/well) of a FITC labeled goat anti-mouse fluorescent antibody or PE labeled goat anti-human fluorescent antibody at 1:50 dilution and incubated at room temperature for 30 min in the dark. The supernatant was removed after centrifugation, and cells were washed with FACS loading buffer, centrifuged again and resuspended with the loading buffer for FACS analysis. The recombinant anti-hGIPR functional antibody specifically binds to GIPR-expressing CHO-DHFR-GIPR cells.

Sequence of human GLP-1 receptor (hGLP-1R) (human) (P43220 24-463): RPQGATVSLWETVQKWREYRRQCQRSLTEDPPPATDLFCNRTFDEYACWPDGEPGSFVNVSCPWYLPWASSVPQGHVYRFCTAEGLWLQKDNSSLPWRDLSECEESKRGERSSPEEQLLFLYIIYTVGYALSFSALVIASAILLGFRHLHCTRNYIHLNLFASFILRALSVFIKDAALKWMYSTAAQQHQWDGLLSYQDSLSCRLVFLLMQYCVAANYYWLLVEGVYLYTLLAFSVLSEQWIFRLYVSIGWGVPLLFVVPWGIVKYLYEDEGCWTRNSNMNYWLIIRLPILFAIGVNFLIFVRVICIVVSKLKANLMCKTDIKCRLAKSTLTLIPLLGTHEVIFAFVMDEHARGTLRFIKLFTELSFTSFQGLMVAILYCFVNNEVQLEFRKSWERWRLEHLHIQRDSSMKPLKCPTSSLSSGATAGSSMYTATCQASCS

B1: GIPR antibody/GLP-1 fusion protein GLP-1-Linker-L7H6 (protein, part only; not given: constant regions, not shown: a dimerising Fc or GST)
light, part: HGEGTFTSDVSSYLEGQAAKEFIAWLVKGGGGGSGGGGSGGGGSDIVLTQSPASLAVSPGQRATITCRASQSVNTAVYSYIHWYQQKPGQPPKLLIKYASNLESGVPARFSGSGSGTDFTLTINPVEANDAANYYCQHSFDFPYTFGGGTKVEIKR
heavy, part: QVQLQESGPGLVKPSQTLSLTCTVSGYSITSDYAWNWIRQPPGKGVEWMGYISYRGIATYKPSLKSRITISRDTSKNQFSLKLSSVTAADTAVYYCVRGEYGPGNFDFWGQGTTVTVSS
The molecule B1 gave an IC50, direct cAMP assay, antagonism of GIP (50 pM) activation of hGIPR on CHO-DHFR cells in assay [1] of 14.9 nM. Also, the EC50, CRE-Luciferase reporter gene assay on CHO-DHFR- cells co-expressing hGLP1R in assay [2] stood at 40 pM.

B2: hGIPR antibody L7H6 (antibody, V domains shown)
VH: B1 heavy, part
VL: DIVLTQSPASLAVSPGQRATITCRASQSVNTAVYSYIHWYQQKPGQPPKLLIKYASNLESGVPARFSGSGSGTDFTLTINPVEANDAANYYCQHSFDFPYTFGGGTKVEIKR
Turning to B2, in assay [3], the “IC50, direct cAMP assay, antagonism of GIP (50 pM) activation of hGIPR on CHO-DHFR cells” value was 7.6 nM.

B3: hGIPR antibody L10H8 (antibody, V domains shown)
VH: QVQLQQSGAEVKKPGSSVKVSCKASGGTFSSYAISWVRQAPGQGLEWMGGIIPTFGTANYAQKFQGRVTITADESTSTAYMELSSLRSEDTAVYYCAQGPIVGAPTDYWGKGTLVTVSS
VL: SYVLTQPPSASGTPGQRVAISCSGSNSNIGSNTVHWYQQLPGAAPKLLIYSNNQRPSGVPDRFSGSNSGTSASLAISRLQSEDEADYYCAAWDDSLNGVVFGGGTKVTVL
notes: Recombinantly expressed complete antibody; Only the variable domains are tied to L10H8; also called Ll0H8
On to B3, for which, in assay [4], the binding result is “binds”.
